# In paper PMC10874396, “Spatiotemporal and direct capturing global substrates of lysine-modifying enzymes in living cells” (Nature Communications, 2024):
# B1: DnaJ (purified recombinant) (natural protein, E. coli, UniProt P08622 1-376, looked up)
# chain: MAKQDYYEILGVSKTAEEREIRKAYKRLAMKYHPDRNQGDKEAEAKFKEIKEAYEVLTDSQKRAAYDQYGHAAFEQGGMGGGGFGGGADFSDIFGDVFGDIFGGGRGRQRAARGADLRYNMELTLEEAVRGVTKEIRIPTLEECDVCHGSGAKPGTQPQTCPTCHGSGQVQMRQGFFAVQQTCPHCQGRGTLIKDPCNKCHGHGRVERSKTLSVKIPAGVDTGDRIRLAGEGEAGEHGAPAGDLYVQVQVKQHPIFEREGNNLYCEVPINFAMAALGGEIEVPTLDGRVKLKVPGETQTGKLFRMRGKGVKSVRGGAQGDLLCRVVVETPVGLNERQKQLLQELQESFGGPTGEHNSPRSKSFFDGVKKFFDDLTR
# notes: DnaJ, E. coli; may be in the Supplementary Information
# Molecular target: T1, PatZ-L813o-NBAK (E. coli, UniProt P76594 1-886, L813o-NBAK, o-NBAK (o-nitrobenzyl alcohol-derived lysine, unnatural amino acid photo-crosslinker) at 813)
# T1 construct: PatZ, protein lysine acetyltransferase of E. coli, amber codon at L813 read as o-NBAK; o-NBAK is a lysine derivative; also called PatZ-L813o-NBAK mutant; o-NBAK encoded enzyme; source: E. coli BL21(DE3), in living cells; also purified (Ni-NTA) for in vitro crosslinking
# T1 sequence (looked up): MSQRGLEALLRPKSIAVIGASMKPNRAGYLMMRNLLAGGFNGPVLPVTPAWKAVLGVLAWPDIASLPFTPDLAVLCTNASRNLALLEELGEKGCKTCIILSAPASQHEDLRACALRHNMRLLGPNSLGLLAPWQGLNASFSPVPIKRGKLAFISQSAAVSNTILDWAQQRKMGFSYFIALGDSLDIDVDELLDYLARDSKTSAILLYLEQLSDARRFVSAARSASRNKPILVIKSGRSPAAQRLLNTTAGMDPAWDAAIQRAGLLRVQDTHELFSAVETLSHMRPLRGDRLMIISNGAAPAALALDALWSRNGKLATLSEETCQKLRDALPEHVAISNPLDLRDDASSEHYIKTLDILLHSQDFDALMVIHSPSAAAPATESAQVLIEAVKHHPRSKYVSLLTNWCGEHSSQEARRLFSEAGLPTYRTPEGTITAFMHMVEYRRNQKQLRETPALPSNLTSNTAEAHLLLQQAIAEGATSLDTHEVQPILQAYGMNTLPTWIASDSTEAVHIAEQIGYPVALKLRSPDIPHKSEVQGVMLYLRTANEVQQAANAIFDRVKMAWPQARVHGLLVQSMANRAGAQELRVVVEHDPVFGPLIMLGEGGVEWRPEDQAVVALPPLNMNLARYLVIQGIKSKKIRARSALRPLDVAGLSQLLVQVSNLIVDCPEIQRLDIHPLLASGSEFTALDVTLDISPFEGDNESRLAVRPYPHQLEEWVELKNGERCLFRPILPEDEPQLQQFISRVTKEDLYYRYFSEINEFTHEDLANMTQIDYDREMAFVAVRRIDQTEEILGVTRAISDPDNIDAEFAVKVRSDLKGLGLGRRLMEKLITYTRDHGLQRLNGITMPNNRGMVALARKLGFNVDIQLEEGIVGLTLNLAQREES
# Assay: cross-linking; in vitro: purified o-NBAK enzyme mixed with purified partner protein in PBS 150 mM NaCl pH 7.5, 365 nm UV 15 min on ice, SDS-PAGE, extra band cut, LC-MS/MS of crosslinked peptides
# Details: both partners purified
binder,measurement,value
B1,binding result,binds
